What all share (conditions): partners not purified
Assay [1] deals with T1, NCC-pBIND (full-length NCC fused to the GAL4 DNA-binding domain) (UniProt P59158 1-1002).
T1 construct: source: COS-7, transiently transfected, mammalian two-hybrid fusion
T1 sequence (looked up): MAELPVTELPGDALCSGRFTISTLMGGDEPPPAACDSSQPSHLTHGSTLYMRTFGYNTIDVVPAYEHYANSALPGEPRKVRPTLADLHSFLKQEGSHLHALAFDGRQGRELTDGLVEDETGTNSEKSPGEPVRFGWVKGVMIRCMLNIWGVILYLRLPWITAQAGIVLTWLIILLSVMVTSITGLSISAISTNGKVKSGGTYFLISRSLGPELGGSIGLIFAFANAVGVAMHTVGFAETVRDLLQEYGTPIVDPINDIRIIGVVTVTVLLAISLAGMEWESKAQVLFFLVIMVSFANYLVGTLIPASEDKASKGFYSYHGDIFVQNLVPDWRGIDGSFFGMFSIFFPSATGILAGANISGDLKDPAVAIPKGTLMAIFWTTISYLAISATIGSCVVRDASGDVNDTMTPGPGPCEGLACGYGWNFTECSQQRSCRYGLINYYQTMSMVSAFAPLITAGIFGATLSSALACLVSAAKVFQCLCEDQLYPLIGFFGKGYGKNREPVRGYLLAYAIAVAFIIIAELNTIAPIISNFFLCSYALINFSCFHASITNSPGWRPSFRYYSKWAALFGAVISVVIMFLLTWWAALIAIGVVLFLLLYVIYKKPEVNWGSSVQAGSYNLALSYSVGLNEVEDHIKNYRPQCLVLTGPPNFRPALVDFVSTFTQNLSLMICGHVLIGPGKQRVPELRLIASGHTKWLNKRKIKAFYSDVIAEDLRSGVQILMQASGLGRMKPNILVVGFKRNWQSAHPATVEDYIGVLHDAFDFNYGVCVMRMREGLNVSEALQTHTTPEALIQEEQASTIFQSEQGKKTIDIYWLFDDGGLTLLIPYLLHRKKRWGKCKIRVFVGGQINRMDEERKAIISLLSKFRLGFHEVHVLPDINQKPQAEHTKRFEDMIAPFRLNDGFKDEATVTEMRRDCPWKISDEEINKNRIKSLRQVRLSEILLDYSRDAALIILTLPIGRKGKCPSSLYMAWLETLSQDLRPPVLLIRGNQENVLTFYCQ
Kind of assay: two-hybrid; Checkmate mammalian two-hybrid in transiently transfected COS-7 cells; NCC-pBIND (GAL4 DNA-binding domain) with α- or γ-pACT (VP16) and pG5luc; firefly luciferase normalized to Renilla, fold change of negative control (empty pBIND + pACT); with or without co-transfected SGK1 or WNK4; read 48 hours after transfection.

The target of assay [2] is T2, thiazide-sensitive sodium chloride cotransporter (NCC) (mouse (endogenous in mDCT15 cells and …, UniProt P59158 1-1002)).
T2 construct: thiazide-sensitive sodium-chloride cotransporter (NCC), endogenous in mouse mDCT15 cells and mouse kidney cortex; Precipitated with an anti-NCC antibody coupled to resin (Pierce Co-Immunoprecipitation Kit); source: endogenous, mDCT15 whole cell lysate; endogenous, mouse kidney cortex homogenate
T2 sequence (looked up): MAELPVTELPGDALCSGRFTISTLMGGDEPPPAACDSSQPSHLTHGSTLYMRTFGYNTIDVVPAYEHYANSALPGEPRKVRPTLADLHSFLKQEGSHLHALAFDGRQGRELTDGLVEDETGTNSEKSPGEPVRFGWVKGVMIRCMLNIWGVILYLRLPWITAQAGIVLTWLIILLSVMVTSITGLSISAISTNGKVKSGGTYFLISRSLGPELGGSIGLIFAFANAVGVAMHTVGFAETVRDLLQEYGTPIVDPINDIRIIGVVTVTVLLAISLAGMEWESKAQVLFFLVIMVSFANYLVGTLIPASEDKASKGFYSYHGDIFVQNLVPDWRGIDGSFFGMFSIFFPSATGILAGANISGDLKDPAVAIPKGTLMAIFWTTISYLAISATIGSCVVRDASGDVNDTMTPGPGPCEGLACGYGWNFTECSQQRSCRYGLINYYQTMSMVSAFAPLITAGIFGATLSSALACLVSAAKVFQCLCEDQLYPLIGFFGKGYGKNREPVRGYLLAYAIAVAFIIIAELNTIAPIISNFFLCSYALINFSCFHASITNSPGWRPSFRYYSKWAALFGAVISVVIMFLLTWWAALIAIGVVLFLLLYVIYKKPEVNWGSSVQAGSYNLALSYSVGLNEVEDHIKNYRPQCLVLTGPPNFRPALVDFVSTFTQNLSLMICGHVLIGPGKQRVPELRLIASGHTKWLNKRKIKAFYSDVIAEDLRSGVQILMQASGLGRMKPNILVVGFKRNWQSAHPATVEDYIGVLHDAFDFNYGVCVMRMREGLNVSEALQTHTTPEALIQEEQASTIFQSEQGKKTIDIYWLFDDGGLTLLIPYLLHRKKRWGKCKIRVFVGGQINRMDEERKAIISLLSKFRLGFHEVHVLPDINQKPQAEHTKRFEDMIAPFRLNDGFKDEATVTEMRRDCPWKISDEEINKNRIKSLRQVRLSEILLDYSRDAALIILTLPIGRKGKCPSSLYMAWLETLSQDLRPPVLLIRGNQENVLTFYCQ
Kind of assay: co-IP; mDCT15 whole cell lysates (about 800 ug protein per column), anti-NCC antibody coupled to resin (Pierce Co-Immunoprecipitation Kit), eluate blotted for αENaC; cells treated with vehicle (EtOH), Aldo (100 nM, 48 hrs), Aldo + SGK1 inhibitor (GSK690394, 6 uM, 60 min) or SGK1 inhibitor alone.

In assay [3] the target is T2, thiazide-sensitive sodium chloride …. Kind of assay: co-IP; mouse kidney cortex homogenates (RIPA buffer), anti-NCC antibody coupled to resin (Pierce Co-Immunoprecipitation Kit), eluate blotted for αENaC; mice on high salt (4%) chow treated with vehicle (25% DMSO in saline) or Aldo (4 ug/day, 10 d).

B1: γ-pACT (full-length γENaC fused to the VP16 activation domain) (natural protein, UniProt Q9WU39 1-655, looked up)
chain: MAPGEKIKAKIKKNLPVRGPQAPTIKDLMHWYCLNTNTHGCRRIVVSRGRLRRLLWIAFTLTAVALIIWQCALLVFSFYTVSVSIKVHFQKLDFPAVTICNINPYKYSAVSDLLTDLDSETKQALLSLYGVKDVLDSTPRKRREAGSMRSTWEGTPPRFLNLIPLLVFNENEKGKARDFFTGRKRKISGKIIHKASNVMHVHESKKLVGFQLCSNDTSDCATYTFSSGINAIQEWYKLHYMNIMAQVPLEKKINMSYSAEELLVTCFFDGMSCDARNFTLFHHPMYGNCYTFNNRENATILSTSMGGSEYGLQVILYINEDEYNPFLVSSTGAKVLVHQQNEYPFIEDVGTEIETAMSTSIGMHLTESFKLSEPYSQCTEDGSDVPVTNIYNAAYSLQICLYSCFQTKMVEKCGCAQYSQPLPPAANYCNYQQHPNWMYCYYQLYQAFVREELGCQSVCKQSCSFKEWTLTTSLAQWPSEASEKWLLNVLTWDQSQQINKKLNKTDLAKLLIFYKDLNQRSIMESPANSIEMLLSNFGGQLGLWMSCSVVCVIEIIEVFFIDFFSIIARRQWQKAKDWWARRRTPPSTETPSSQQGQDNPALDTDDDLPTFTSAMRLPPAPEAPVPGTPPPRYNTLRLDSAFSSQLTDTQLTNEF
notes: epithelial sodium channel (ENaC) gamma subunit, full-length clone in pACT; source: COS-7, transiently transfected, mammalian two-hybrid fusion
In the case of B1, the “two-hybrid luciferase signal, fold of negative control” value in assay [1] was 4.33 fold change of negative control.

B2: epithelial sodium channel alpha subunit (αENaC) (natural protein, UniProt Q61180 1-699, looked up)
chain: MLDHTRAPELNLDLDLDVSNSPKGSMKGNNFKEQDLCPPLPMQGLGKGDKREEQALGPEPSEPRQPTEEEEALIEFHRSYRELFQFFCNNTTIHGAIRLVCSKHNRMKTAFWAVLWLCTFGMMYWQFALLFEEYFSYPVSLNINLNSDKLVFPAVTVCTLNPYRYTEIKEDLEELDRITEQTLFDLYKYNSSYTRQAGGRRRSTRDLRGALPHPLQRLRTPPPPNPARSARSASSSVRDNNPQVDRKDWKIGFQLCNQNKSDCFYQTYSSGVDAVREWYRFHYINILSRLPDTSPALEEEALGSFIFTCRFNQAPCNQANYSQFHHPMYGNCYTFNNKNNSNLWMSSMPGVNNGLSLTLRTEQNDFIPLLSTVTGARVMVHGQDEPAFMDDGGFNVRPGVETSISMRKEALDSLGGNYGDCTENGSDVPVKNLYPSKYTQQVCIHSCFQENMIKKCGCAYIFYPKPKGVEFCDYLKQSSWGYCYYKLQAAFSLDSLGCFSKCRKPCSVTNYKLSAGYSRWPSVKSQDWIFEMLSLQNNYTINNKRNGVAKLNIFFKELNYKTNSESPSVTMVSLLSNLGSQWSLWFGSSVLSVVEMAELIFDLLVITLIMLLHRFRSRYWSPGRGARGAREVASTPASSFPSRFCPHPTSPPPSLPQQGTTPPLALTAPPPAYATLGPSASPLDSAVPGSSACAPAMAL
notes: epithelial sodium channel (ENaC) alpha subunit, endogenous in mouse mDCT15 cells and mouse kidney cortex; Detected by immunoblot with an αENaC antibody in the NCC precipitate; source: endogenous, mDCT15 whole cell lysate; endogenous, mouse kidney cortex homogenate
Take B2: in assay [2], the “fold change of αENaC co-precipitated with NCC, Aldo + SGK1 inhibitor against vehicle” value is 1.55 fold change/vehicle; the “fold change of αENaC co-precipitated with NCC, Aldo against vehicle” value is 2.05 fold change/vehicle; the “fold change of αENaC relative to NCC in the CoIP fractions, Aldo against vehicle” value amounted to 1.55 fold change/vehicle. Further, in assay [3], the “fold change of αENaC co-precipitated with NCC, Aldo against vehicle” value turned out to be 3.07 fold change/vehicle.

B3: α-pACT (full-length αENaC fused to the VP16 activation domain) (natural protein, UniProt Q61180 1-699, looked up)
chain: MLDHTRAPELNLDLDLDVSNSPKGSMKGNNFKEQDLCPPLPMQGLGKGDKREEQALGPEPSEPRQPTEEEEALIEFHRSYRELFQFFCNNTTIHGAIRLVCSKHNRMKTAFWAVLWLCTFGMMYWQFALLFEEYFSYPVSLNINLNSDKLVFPAVTVCTLNPYRYTEIKEDLEELDRITEQTLFDLYKYNSSYTRQAGGRRRSTRDLRGALPHPLQRLRTPPPPNPARSARSASSSVRDNNPQVDRKDWKIGFQLCNQNKSDCFYQTYSSGVDAVREWYRFHYINILSRLPDTSPALEEEALGSFIFTCRFNQAPCNQANYSQFHHPMYGNCYTFNNKNNSNLWMSSMPGVNNGLSLTLRTEQNDFIPLLSTVTGARVMVHGQDEPAFMDDGGFNVRPGVETSISMRKEALDSLGGNYGDCTENGSDVPVKNLYPSKYTQQVCIHSCFQENMIKKCGCAYIFYPKPKGVEFCDYLKQSSWGYCYYKLQAAFSLDSLGCFSKCRKPCSVTNYKLSAGYSRWPSVKSQDWIFEMLSLQNNYTINNKRNGVAKLNIFFKELNYKTNSESPSVTMVSLLSNLGSQWSLWFGSSVLSVVEMAELIFDLLVITLIMLLHRFRSRYWSPGRGARGAREVASTPASSFPSRFCPHPTSPPPSLPQQGTTPPLALTAPPPAYATLGPSASPLDSAVPGSSACAPAMAL
notes: epithelial sodium channel (ENaC) alpha subunit, full-length clone in pACT; source: COS-7, transiently transfected, mammalian two-hybrid fusion
Take B3: in assay [1], the “two-hybrid luciferase signal, fold of negative control” value was 7.74 fold change of negative control and the “two-hybrid luciferase signal, fold of negative control, with SGK1 co-transfected” value was 14.7 fold change of negative control.

The values above are taken from publication PMC5482882, “Aldosterone Modulates the Association between NCC and ENaC” (Scientific Reports, 2017).
